IC50 and EC50 data for 19 molecules are collected here from US20240166747A1.

Residue numbers refer to the chain shown, from its start.

B1: 42Y073-86F08-3 (antibody, V domains shown)
VH: QVQLVQSGAEVKKPGSSVKVSCKASGGTFVNYAISWVRQAPGQGLEWMGGIIPALGTANYAQKFQGRVTITADESTSTAYMELSSLRSEDTAVYYCARGAGYYGDKDPMDVWGQGTTVTVSS
VL: DIQLTQSPSSLSASVGDRVTITCRASQSISSYLNWYQQKPGKAPKLLIYAASSLQSGVPSRFSGSGSGTDFTLTISSLQPEDFATYYCQQVLHTITFGGGTKVEIK
B2: 42Y073-86F08-22 (antibody, V domains shown)
VH: B1 VH with S16A, G27Y, V30D, N31S, I34M, S35H, A54I, L55F, N59W
VL: B1 VL
B3: 42Y073-86F08-4 (antibody, V domains shown)
VH: B1 VH with V30S, N31E, S35H, G50N, A54I, L55F, N59G
VL: B1 VL
B4: 42Y073-86F08-16 (antibody, V domains shown)
VH: B1 VH with V30N, N31E, I52V, A54V, L55F, N59K
VL: B1 VL
B5: 42Y073-86F08-47 (antibody, V domains shown)
VH: B1 VH with V30S, N31Q, S35H, G50V, A54I, L55F, T57K
VL: B1 VL
B6: 42Y073-86F08-8 (antibody, V domains shown)
VH: B1 VH with V30W, N31L, A54Q
VL: B1 VL
B7: 42Y073-86F08-17 (antibody, V domains shown)
VH: B1 VH with V30R, N31E, A54V, L55F
VL: B1 VL
B8: 42Y073-1A01-85 (antibody, V domains shown)
VH: QVQLVQSGAEVKKPGASVKVSCKASGYTFTSYPMHWVRQAPGQGLEWMGIINPSGGFTSYAQKFQGRVTMTRDTSTSTVYMELSSLRSEDTAVYYCARETAYYTTKGNWFDPWGQGTLVTVSA
VL: DIQMTQSPSSLSASVGDRVTITCRASQSISSYLNWYQQKPGKAPKLLIYAASSLQSGVPSRFSGSGSGTDFTLTISSLQPEDFATYYCQQSLYPPRTFGGGTKVEIK
B9: 42Y073-86F04-5 (antibody, V domains shown)
VH: QVQLVQSGAEVKKPGSSVKVSCKASGGTFSSHAISWVRQAPGQGLEWMGGIIPIFGRGKYAQKFQGRVTITADESTSTAYMELSSLRSEDTAVYYCARLLGESGMDVWGQGTTVTVSS
VL: B8 VL with S91P, L92Y, Y93F, P94S, R96P
B10: 42Y073-1A01-191 (antibody, V domains shown)
VH: B8 VH with S31K, P33R, S54Q, F57S
VL: B8 VL
B11: 42Y073-86F04-23 (antibody, V domains shown)
VH: B9 VH with S31G, H32Y, A33P, F55M, R57T, G58A, K59R
VL: B8 VL with S91P, L92Y, Y93F, P94S, R96P
B12: 42Y073-1A01-100 (antibody, V domains shown)
VH: B8 VH with S31T, P33R, F57L, S59Q, A123S
VL: B8 VL
B13: 42Y073-86F04-18 (antibody, V domains shown)
VH: B9 VH with H32R, F55M, R57T, G58A, K59R
VL: B8 VL with S91P, L92Y, Y93F, P94S, R96P
B14: 42Y073-1A01-97 (antibody, V domains shown)
VH: B8 VH with S31R, Y32A, P33A, S54A, F57Y, A123S
VL: B8 VL
B15: 42Y073-86F04-6 (antibody, V domains shown)
VH: B9 VH with S31G, G58A, K59R
VL: B8 VL with S91P, L92Y, Y93F, P94S, R96P
B16: 42Y073-86F04-4 (antibody, V domains shown)
VH: B9 VH with S30E, H32E, G58A, K59R
VL: B8 VL with S91P, L92Y, Y93F, P94S, R96P
B17: 42Y073-1A01-126 (antibody, V domains shown)
VH: B8 VH with S31R, P33N, I50W, S54A, F57S
VL: B8 VL
B18: 42Y073-86F04-3 (antibody, V domains shown)
VH: B9 VH with S31Y, H32N, F55M, R57T, G58A, K59R
VL: B8 VL with S91P, L92Y, Y93F, P94S, R96P
B19: 42Y073-1A01-103 (antibody, V domains shown)
VH: B8 VH with S31A, P33Q, S54A, F57W, A123S
VL: B8 VL

The first experiment deals with human CD96v2 expressed on cells (human) (UniProt P40200). Nature of the experiment: competition flow cytometry, inhibition of CD155-Fc-AF647 binding to CHO cells expressing human CD96v2. (In general: Flow cytometry measures light scatter and fluorescence of single cells or particles in a stream.)
B1 displayed a half-maximal inhibitory concentration (IC50) of 0.26 nM.
The same measure, in the same setting: to B2 belongs 0.41 nM; to B3, 0.38 nM; to B4, 0.78 nM.
On to B5, for which the IC50 was 0.17 nM.
Turning to B6, the IC50 turned out to be 0.93 nM.
The same measure, in the same setting: to B7 belongs 0.52 nM; to B8, 0.03 nM; to B9, 0.38 nM.
Take B10: the IC50 is 0.03 nM.
Consider B11, for which the IC50 stood at 0.76 nM.
The same measure, in the same setting: next, B12: 0.06 nM; B13: 0.59 nM; B14: 0.03 nM.
B15 returned an IC50 of 0.25 nM.
Still for that read-out and setting: to B16 belongs 0.18 nM; to B17, 0.1 nM; to B18, 0.31 nM.
In turn, B19 showed an IC50 of 0.03 nM.

A further experiment has the same target. In words: flow cytometry, CHO cells expressing human CD96v2.
In the case of B1, the EC50 is 0.04 nM.
Same read-out and setting: to B2 belongs 0.03 nM.
In turn, B3 came in with an EC50 of 0.04 nM.
On the same count and under the same terms, to B4 belongs 0.03 nM; to B5, 0.05 nM; to B6, 0.17 nM.
For the molecule B7, the concentration giving a half-maximal response (EC50) amounted to 0.1 nM.
On the same count and under the same terms, to B8 belongs 0.47 nM; to B10, 0.01 nM.
Regarding B11, the concentration giving a half-maximal response (EC50) came out at 0.06 nM.
The same measure, in the same setting: next, B12: 0.02 nM; B13: 0.07 nM.
On the same count and under the same terms, next, B14: 0.77 nM; B15: 0.06 nM; B16: 0.04 nM.
Molecule B17 displayed an EC50 of 0.02 nM.
Same read-out and setting: to B18 belongs 0.04 nM.
For the molecule B19, the EC50 turned out to be 0.02 nM.

Another experiment deals with native human CD96 on primary human T cells and NK cells (human) (UniProt P40200). Nature of the experiment: flow cytometry, primary human CD3+ T cells.
For the molecule B2, the 50% effective concentration (EC50) is 0.1 nM.

Usually IC50 stands for the concentration that gives 50% inhibition. A higher IC50 goes with weaker potency. As a reminder, the EC50 is the concentration needed to bring the measured effect to its halfway point. A low value points to greater potency.
